Test in all cases: two-hybrid library CCNG1;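 further: natural log of median RNA to DNA barcode read ratio; higher means stronger binding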
One experiment addresses T1, O15-bP.
T1 chain: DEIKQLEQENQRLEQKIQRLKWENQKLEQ

The next experiment deals with T2, O8-bP.
T2 chain: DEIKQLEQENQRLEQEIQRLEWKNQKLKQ

The next experiment addresses T3, O14-bP.
T3 chain: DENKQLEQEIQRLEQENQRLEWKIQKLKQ

A further experiment concerns the target T4, O7-bP.
T4 chain: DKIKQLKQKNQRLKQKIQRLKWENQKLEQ

The next experiment has as its target T5, O16-bP.
T5 chain: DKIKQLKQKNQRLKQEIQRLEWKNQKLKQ

The next experiment deals with T6, O6-bP.
T6 chain: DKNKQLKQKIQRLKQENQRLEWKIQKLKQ

A further experiment deals with T7, O4-bP.
T7 chain: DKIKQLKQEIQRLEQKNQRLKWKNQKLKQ

A further experiment addresses T8, O9-bP.
T8 chain: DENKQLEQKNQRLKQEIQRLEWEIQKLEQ

A further experiment concerns the target T9, O2-bP.
T9 chain: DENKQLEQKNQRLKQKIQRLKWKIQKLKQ

The next experiment addresses T10, O5-bP.
T10 chain: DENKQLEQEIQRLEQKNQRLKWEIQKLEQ

In a further experiment the target is T11, O13-bP.
T11 chain: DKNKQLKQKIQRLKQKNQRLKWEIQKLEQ

Another experiment concerns the target T12, O3-bP.
T12 chain: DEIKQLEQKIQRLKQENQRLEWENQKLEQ

Another experiment concerns the target T13, 4H3907-bH.
T13 chain: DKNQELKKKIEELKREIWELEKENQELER

The next experiment concerns the target T14, 4H344-bH.
T14 chain: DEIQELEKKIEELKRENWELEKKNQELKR

A further experiment deals with T15, 4H470-bH.
T15 chain: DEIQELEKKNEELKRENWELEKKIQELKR

The target in a further experiment is T16, 4H363-bH.
T16 chain: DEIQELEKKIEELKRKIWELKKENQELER

In another experiment the target is T17, 4H3961-bH.
T17 chain: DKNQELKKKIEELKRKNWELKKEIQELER

With DKNKQLKQKIQRLKQKNQRLKWEIQKLEQ [O13-bP], the interaction score with O15-bP was -0.599; in the experiment with O8-bP it was -0.609; with O14-bP, 1.35; in the experiment with O7-bP it was -1.19; with O16-bP, -1.17; in the experiment with O6-bP, -0.094. For the same molecule, the interaction score with O4-bP was -0.851; with O9-bP, -1.05; in the experiment with O2-bP, -1.3; in the experiment with O5-bP, -0.814; with O13-bP it was -2.25; in the experiment with O3-bP, -1.76.

In the case of DEIQELEKKIEELKRENWELEKKNQELKR [4H344-bH], the interaction score with 4H3907-bH came out at 0.791; with 4H344-bH, 0.843; with 4H470-bH, 0.944; in the experiment with 4H363-bH, 0.49; with 4H3961-bH it was 0.837.
